Results on 3 molecules are retold here after PMC8221199, “Semisynthetic ‘designer’ p53 sheds light on a phosphorylation–acetylation relay†”.

Data set [1] addresses T1, p53rec (UniProt P04637 1-393). In words: competition; 1 uM competitor vs 20 nM labelled GADD45; EMSA: 0.4 uM p53 variant (0.1 uM tetramer), 20 nM 32P-DNA, 1 uM unlabelled competitor where used, 20 min at RT, native gel; a p53 369-383 peptide was synthesized for the EMSAs; buffer, salt and pH not in the material. The settings on record: protein: recombinant; tags: untagged; chain copies: 4; label: none (unlabelled).

Data set [2] concerns the target T1, p53rec. In words: EMSA; 0.4 uM p53 (0.1 uM tetramer), 20 nM DNA; EMSA: 0.4 uM p53 variant (0.1 uM tetramer), 20 nM 32P-DNA, 1 uM unlabelled competitor where used, 20 min at RT, native gel; a p53 369-383 peptide was synthesized for the EMSAs; buffer, salt and pH not in the material. The settings on record: protein: recombinant; tags: untagged; chain copies: 4; label: 32P.

T1 sequence (P04637 whole entry): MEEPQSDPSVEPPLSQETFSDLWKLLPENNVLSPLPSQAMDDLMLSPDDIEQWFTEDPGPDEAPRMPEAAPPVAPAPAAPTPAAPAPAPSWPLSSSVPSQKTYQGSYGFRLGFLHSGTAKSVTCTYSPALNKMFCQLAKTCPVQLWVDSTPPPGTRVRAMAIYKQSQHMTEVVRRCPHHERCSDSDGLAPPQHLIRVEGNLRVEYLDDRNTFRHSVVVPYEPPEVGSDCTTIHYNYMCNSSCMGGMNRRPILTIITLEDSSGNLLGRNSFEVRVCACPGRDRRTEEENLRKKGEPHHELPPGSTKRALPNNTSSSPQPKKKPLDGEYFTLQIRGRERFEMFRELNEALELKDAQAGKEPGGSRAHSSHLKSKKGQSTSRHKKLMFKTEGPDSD

B1: GADD45 unlabelled competitor (dsDNA)
DNA 1: GTACAGAACATGTCTAAGCATGCTGGGGAC
DNA 2: GTCCCCAGCATGCTTAGACATGTTCTGTAC
In the case of B1, in data set [1], the binding result is on record as “binds”.

B2: GADD45 target (dsDNA)
DNA 1: B1 DNA 1
DNA 2: B1 DNA 2
B2: the binding result in data set [2] is recorded as “binds”.

B3: randomized competitor (dsDNA)
DNA 1: CCACCATACCTTCGATTATCGCGCCCACTC
DNA 2: GAGTGGGCGCGATAATCGAAGGTATGGTGG
On to B3, for which the binding result in data set [1] is given as “no binding”.
